Data reported in the supplement of paper PMC9170038.

Tested on: K4 kissing-loop RNA reporter
Experiment: apparent KD of K4 kissing-loop reporter; higher = weaker reporter binding
Settings: Eterna round: R107; input ligand: arginine 13.2 mM
Experimental: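 RNA-MaP round R107: designed RNA switches with theophylline, tryptophan, arginine or FMN aptamers are transcribed on-chip within common flanks. They are titrated with a labelled K4 kissing-loop RNA reporter in RNA-MaP buffer (100 mM Tris pH 7.5, 80 mM KCl, 4 mM MgCl2), without ligand or with the indicated ligand. Median apparent KD per design.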
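Further: bound reporter read as fluorescence of individual clusters on recovered sequencing chips by microscopy, with normalized cluster intensities fitted with a binding model.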

In order of rising “apparent KD of K4 kissing-loop reporter” value:
1. AUGGGCACGUCGGCCGCCACUACACGGUCCCGCGAGGGCCAGUGAUGUUGGUCGACGUGCCGUUGUAGGACCGGGACGUGGCUGU [Teatondi]  54.5 nM
2. UUUAUAAAGUCGGCCGCCACUGGAUUUAUAUUUGUUUCGUCUGGAUCAAAGUGAUGUUUUGAGUCCAGGACCGGGACAUUUGUUA [whbob_Ex_Tryp_B_w37]  71.1 nM
3. GGUAUCUAUACAGAUACCAGUCGUACAGCUGCAUUACAGGUUAGUGAUGUUAACCUGUACGACCCUUGGCAGCUGUAUAGUAGUA [Theo B Ex t2b]  72 nM
4. UCAGUUCACGGGCGCCGCAAACCGCAGGAUACCAGUCACAUCGCUGACCCUUGGCAGCCUAUGGACUAGUGAUGUUAGUCCAGGA [theeternabot_sameState_KL_Theo_A_37]  95.2 nM
5. GGCGGGUGCCCGUAAGGGUGCCCGGCCGAUACCAGCGCGACGGCGCGCCCUUGGCAGCGGCGCCGAGUGAUGUUCGGCCUGCCGU [#2 Same State - Theophylline A Attempt #24 (HarryS)]  105 nM
6. UUCUACGAGUGAUGUUCGUAGUGUAAUAGUUAGGAUAUCGUUUUUUCGAGAAGGAACUUCGAAGUGAUACGAAAGUAUCGCUUCG [FMN A 11]  117 nM
7. GCUAUGGUAGGAAGGAGCGCUACUUUAUUUUUACGAGUGAUGUUCGGUAGUAGAGUGUUAAAGCAGGUAGGUCGCCUACUAUAGC [Arginine B K4 18]  132 nM
8. UUACCAAGUGAUGUUUGGAAAUAUCCUAGGCAGGAUAUGCGGAAACGCAGAAGGGCCACCUGAUAGUGAAGGAAACUUCGCUAUC [Ex FMN A 1]  141 nM
9. GUGCGGCUAGUGAUGUUGGUUGCGUGGGAAGGAGCGCAGAAACAUGCAGGUAGGUCGCCCACAUCUCGGAUAAGAGAUUAAUUCC [Arorso]  153 nM
10. UGAUAGGACAGAAGGAGCGGAAGUGAUGUUUCCAAUGGAAUUAAGGUGUCAAAGACACCCUUCCAGGUAGGUCGCUGUCCUAUCU [ArgBX 18 #Palindromic #SwitchBubble #StaticStem]  161 nM
11. UAAAUAAUAAAACGAGUGAUGUUCGACGAUACCAGCCUCGAUAGAGGCCCUUGGCAGCGUAUGUGAUCACUAAGCCAAGGAAUAA [#02 K4 Theophylline A Exclusion]  175 nM
12. AUAGGAGUGAUGUUCCUUAGUCCCUCCGAUACCAGUAUGGAAACAUACCCUUGGCAGCGGUGGACCGCAGAUUAGGAAACUAGUC [Theophylline A K4 4]  238 nM
13. GGCGGCCGCGCGCAAGCGCGGCCGGCCGAUACCAGCGCGCCGGCGCGCCCUUGGCAGCGGCGCCGAGUGAUGUUCGGCCUGCCGG [#2 Same State - Theophylline A Attempt #9 (HarryS)]  267 nM
14. AUUAAUAACAGAGGAUAUGCAUUUUUAUUAUUUUUAAAUAUUAAAUGCAGUGAUGUUGCAUAUUAAGCAGAAGGCUGAUUUAUUU [JR_SSFMNB_Sub012]  271 nM
15. AGUGAUGUUUUUUUUAAGAGUGAUGUUUUUCGAGGACCGGUACGGCCGCCACUCGAGUGAUGAGUGAGGUGUGGUGAUGUUUAGU [#09 K4 Tryptophan A Exclusion]  279 nM
16. GUAGUGAUGUUACGAAUAUUCCAUCAUAGAGAGGAUAUUGUUCCUUCGAGAAGGUUCUGAGAAUUAAAAUUUAAUAAAAUGAAGG [Exclusion FMN A GF 1]  302 nM
17. UUGUUUGGUUGAGAGGUUGGGCGAGAUGAUACCAGUAUAGUAUUGUACCCUUGGCAGCAUAUGAGAGAUAUAGUGAUGUUGUAUG [SSTheophA.X]  358 nM
18. CGCAGUGAUGUUGCUAUUAUUCUUGGUUAACGAGGACCGGUACGGCCGCCACUCGAUUUCUAUCUAGUCCAGUGUUUUUUUGAGU [whbob_EX_Tryp_A_t7]  392 nM
19. GGUGCGCUGUUAGUGAUGUUAACCGAGGAUACCAGUUAGGCGUCUAACCCUUGGCAGCCUCUCUGGUCUCAUCAACGUUGUGCUA [theeternabot_exclusion_KL_Theo_A_37]  431 nM
20. UGGAGUUGACGAAAAGUCAACUCCUGAGAUACCAGUGACGAAGGUCACCCUUGGCAGCUCACUGCUAGUGAUGUUGGUAGUUAAA [whbob_SS_Theo_A_w50]  502 nM
21. AAGCCCAGUGAUGUUGGAAGCGCGUACGAUACCAGCGAAUCGGAACGCCCUUGGCAGCGUACAGAGUUGGCGGAAGAUAGGACAG [theeternabot_sameState_KL_Theo_A_14]  507 nM
22. GAGAAUCUCACGGCCGCCACUCACCUGUUAAUUGACAUCGACGGCCUCGACCAGUGAUGUUGUGUGAGGACCGGGUGUCUCGUGU [theeternabot_exclusion_KL_Trp_B_32]  519 nM
23. AUGGGUCCACGAAGGAGCGCCGUGGAGUGAUGUUCCGGUUAGAUCCAGUGAUGUUGGGCCCGGCAGGUAGGUCGCGUGGACUCAU [Exclusion Arginine B GF 23]  522 nM
24. CGCGCCCAGCCGGAUACCAGUGACCCGCUGGGAACCGCGGGCCCAGAGUGAUGUUCGGGACACCCUUGGCAGCCGCCUGGGCGGU [#2 Same State - Theophylline B Attempt #10 (HarryS)]  576 nM
25. UCUAUAGUUAGAGGAUAUUGAAUUAGAGUGAUGUUCUAUAGAAGACCAGUGAUGUUGGAUAGUAUACAAGAAGGCUGAUCUAUAG [Same State FMN B GF 1]  665 nM
26. AAUGUUAGCAAAGGAUAUCUGAUGAGUGAUGUUUACGGACCGUUUGCGUUUCAUUACACGCAGCUCAGAGAAGGUUGGUGUGCAG [theeternabot_exclusion_KL_FMN_B_49]  866 nM
